Source: patent publication US20190106498A1, “TREATMENT FOR ACUTE MYELOID LEUKEMIA” (priority 2017, published 2019)

Key:
AML LSCs = experiment: Colony plating assay of AML LSCs; assay type: cell-based, human; conditions: P6, P8, P11; all disease risk categories
Method: FIGS. 3A-3F Anti-CD70/decitabine co-treatment reduces re-plating capacity of human CD34+CD38− AML stem/progenitor cells. […] Colonies and cells were enumerated after 14 days. (FIG. 3A) Colonies per 1×10^3 plated cells. (FIG. 3B) Cells per colony. (FIG. 3C) Serial re-plating experiments. (d-f) FACS-purified lin-CD90+CD34+CD38− stem/progenitor cells from BM of “healthy” donors were cultured and plated in methylcellulose as described in (a-c). (FIG. 3D) Colonies per 1×10^3 plated cells. (FIG. 3E) Cells per colony. (FIG. 3F) Serial re-plating experiments. Data are represented as mean±S.D. Statistics: One-way-ANOVA. Dunnett's post-test (vs. αCD70/D); *, P<0.05; **, P<0.01; ***, P<0.001.

AML = experiment: Phase I/II trial of ARGX-110 with AZA: clinical response; assay type: in vivo, human; conditions: for Time to best response: cycle/day
Excerpt: The study included a screening phase (between Day −35 and Day −14), a loading dose of ARGX-110 (Day −14) and an open-label treatment phase during which subjects visited the study center for administration of the study drug (Day −14 until disease progression), and end-of-treatment (EOT) evaluations performed within 7 days after the last ARGX-110 treatment. Additional follow-up evaluations were scheduled at 30 and 60 days (±7 days) after the EOT date. The 60-days follow-up visit was also the end-of-study (EOS) visit.
Clinical response to treatment was categorised according Table 3: […]

[1] = Serum pharmacokinetics of ARGX-110 (ELISA); assay type: in vivo, human
Method: FIG. 11 The serum concentration of ARGX-110 was analyzed using a validated enzyme-linked immunosorbent assay (ELISA) method. Individual patient PK plots are provided for 10 mg/kg cohort. The PK plot presents data for ARGX-110 cycle1 (D-14 pre-dose until Cycle1 D1 pre-dose).
The serum concentrations of ARGX-110 were analysed using a validated enzyme-linked immunosorbent assay (ELISA) method. The following pharmacokinetic parameters were assessed: • Cmax: maximum observed concentration; Ctrough: trough concentration; AUC∞: area under the serum concentration-time curve from time zero to infinity; AUCtau: area under the serum concentration-time curve during the dosing interval; Vd: apparent volume of distribution; CL: total systemic clearance of drug after IV administration; t1/2: half-life.
The serum concentration of ARGX-110 was analysed using a validated enzyme-linked immunosorbent assay (ELISA) method. FIG. 11 provides individual patient PK plots for the 10 mg/kg cohort. The PK plot presents data for ARGX-110 cycle 1 (D-14 pre-dose until Cycle1 D1 pre-dose).

[2] = ARGX-110 concentration in bone marrow aspirates versus plasma; assay type: in vivo, human
Method: Concentration of ARGX-110 in bone marrow aspirates was measured in limited samples and compared to the matching plasma samples.

[3] = Phase I/II trial: peripheral blood counts; assay type: in vivo, human
Excerpt: By C2D17, the percentage of blasts in peripheral blood was 0.8% by flow cytometry and 0% by cell morphology.
Patient 1001003 is a person with AML with myelodysplasia-related changes by WHO classification (AML-M2 by FAB classification) and 24% bone marrow blasts. […] Blast percentage at C1D1 was stable.

CD70 = molecular target: T1, CD70 (Homo sapiens, UniProt P32970); conditions: cited from earlier work
T1 sequence (P32970 1-193): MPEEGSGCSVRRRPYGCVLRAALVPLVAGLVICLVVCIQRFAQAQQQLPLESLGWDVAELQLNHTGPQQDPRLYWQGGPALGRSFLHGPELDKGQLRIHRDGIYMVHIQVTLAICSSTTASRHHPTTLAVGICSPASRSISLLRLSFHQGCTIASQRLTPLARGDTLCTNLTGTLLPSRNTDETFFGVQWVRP

[4] = Phase I/II trial: adverse events and toxicity
Method: Subjects received a loading dose of ARGX-110 on Day −14, followed by administration of ARGX-110 in combination with standard doses of AZA. Doses of ARGX-110 were administered intravenously every 2 weeks (loading dose at Day −14 and further doses on Days 3 and 17) in combination with standard doses of AZA to determine the dose limiting toxicity (see FIG. 4). The first patient of each cohort was monitored until day 7 before a second patient was included. […] The ARGX-110 dose level in the first cohort in Phase I was 1 mg/kg body weight.
All subjects in the study received a single loading dose of ARGX-110 on Day −14, at the same dose level as the bi-weekly dose. Subjects in Phase I of the study received one of the following treatments: • Cohort 1: 1 mg/kg body weight IV on Days 3 and 17 of a 28-day cycle • Cohort 2: 3 mg/kg body weight IV on Days 3 and 17 of a 28-day cycle • Cohort 3: 10 mg/kg body weight IV on Days 3 and 17 of a 28-day cycle • Cohort 4: 20 mg/kg body weight IV on Days 3 and 17 of a 28-day cycle

[5] = patients treated for sufficient time to assess response
[6] = patient 1001005, 3 mg/kg, Cycle 7 Day 2
[7] = patient 1001007, 10 mg/kg, Cycle 4 Day 1
[8] = patient 1001002, 1 mg/kg with AZA, C3D17
[9] = patient 1001003, with AZA, C2D1

B1: ARGX-110: IgG1 anti-CD70 antibody with defucosylated Fc region; VH SEQ ID NO: 4, VL SEQ ID NO: 8 (antibody, V domains shown)
VH: EVQLVESGGGLVQPGGSLRLSCAASGFTFSVYYMNWVRQAPGKGLEWVSDINNEGGTTYYADSVKGRFTISRDNSKNSLYLQMNSLRAEDTAVYYCARDAGYSNHVPIFDSWGQGTLVTVSS
VL: QAVVTQEPSLTVSPGGTVTLTCGLKSGSVTSDNFPTWYQQTPGQAPRLLIYNTNTRHSGVPDRFSGSILGNKAALTITGAQADDEAEYFCALFISNPSVEFGGGTQLTVLG
modifications: IgG1, defucosylated Fc; Custom antibody fragment
For B1, the “number of colonies formed by AML LSCs” value (AML LSCs) was “reduce the number of colonies”, the “Time to best response” value (AML; Cohort 1 (1 mg/kg) with AZA, one line per patient, 1 mg/kg) was “EOT” and the “Time to best response” value (AML; Cohort 2 (3 mg/kg) with AZA, one line per patient, 3 mg/kg) was “EOT”. For the same molecule, the “Best response to date” value (AML; Cohort 4 (20 mg/kg) with AZA, one line per patient, 20 mg/kg) was “No response”, the “patients in each cohort showing complete remission” value (AML; each of the 1 mg/kg, 3 mg/kg and 10 mg/kg cohorts) was 2 of the 3 and the “patients responding (response rate)” value (AML; [5]) was “more than 90%”. For the same molecule, the “responding patients / assessed patients” value (AML; [5]) was 10/11, the half-life ([1]; 10 mg/kg) was “approximately 9.2 days” and the “Cmax and AUC over the dose range studied” value ([1]; all cohorts) was “dose proportionality”. For the same molecule, the “CARGX-110 BM aspirate” value [2, 6] was 33.1 µg/mL, the CARGX-110 plasma [2, 6] was 37.3 µg/mL and the “CARGX-110 BM aspirate” value [2, 7] was 117.7 µg/mL. The CARGX-110 plasma [2, 7] was 126.6 µg/mL, the “concentration in bone marrow aspirates versus plasma” value ([2]; patients 1001005 and 1001007) was “comparable to the plasma levels” and the Hb [3, 8] was 10.2 g/dL. For the same molecule, the “absolute neutrophil count (ANC)” value [3, 8] was 0.97 G/L, the platelets [3, 8] was 128 G/L and the ANC [3, 9] was 0.38 G/L. The Hb [3, 9] was 9.2 g/dL, the platelets [3, 9] was 98 G/L and the “CD70-induced CD27 signalling” value (CD70) was “inhibit CD70-induced CD27 signalling”. The “interaction of CD70 with CD27” value (CD70) was “inhibit the interaction of CD70 with its receptor CD27”, the “Anaemia, Grade 3-5 adverse events: (patients)” value (“Anaemia … (patients)” for short) ([4]; Cohort 1 (1 mg/kg), with AZA) was 1 and the “Anaemia, Grade 3-5 adverse events: Events” value ([4]; Cohort 1 (1 mg/kg), with AZA) was 4. The “Febrile Neutropenia, Grade 3-5 adverse events: (patients)” value (shortened to “Febrile Neutropenia … (patients)”) ([4]; Cohort 1 (1 mg/kg), with AZA) was 2 (2), the “Febrile Neutropenia, Grade 3-5 adverse events: Events” value ([4]; Cohort 1 (1 mg/kg), with AZA) was 2 (2) and the “Leukopenia, Grade 3-5 adverse events: (patients)” value ([4]; Cohort 1 (1 mg/kg), with AZA) was 1 (1). For the same molecule, the “Leukopenia, Grade 3-5 adverse events: Events” value ([4]; Cohort 1 (1 mg/kg), with AZA) was 1 (1), the “Neutropenia, Grade 3-5 adverse events: (patients)” value ([4]; Cohort 1 (1 mg/kg), with AZA) was 1 and the “Neutropenia, Grade 3-5 adverse events: Events” value ([4]; Cohort 1 (1 mg/kg), with AZA) was 2. The “Pleuropericarditis, Grade 3-5 adverse events: (patients)” value ([4]; Cohort 1 (1 mg/kg), with AZA) was 1 (1), the “Pleuropericarditis, Grade 3-5 adverse events: Events” value ([4]; Cohort 1 (1 mg/kg), with AZA) was 1 (1) and the “Thrombocytopenia, Grade 3-5 adverse events: (patients)” value (“Thrombocytopenia … (patients)” below) ([4]; Cohort 1 (1 mg/kg), with AZA) was 2. For the same molecule, the “Thrombocytopenia, Grade 3-5 adverse events: Events” value ([4]; Cohort 1 (1 mg/kg), with AZA) was 8, the “Anaemia … (patients)” value ([4]; Cohort 2 (3 mg/kg), with AZA) was 3 and the “Anaemia, Grade 3-5 adverse events: Events” value ([4]; Cohort 2 (3 mg/kg), with AZA) was 10. For the same molecule, the “Constipation, Grade 3-5 adverse events: (patients)” value ([4]; Cohort 2 (3 mg/kg), with AZA) was 1 (1), the “Constipation, Grade 3-5 adverse events: Events” value ([4]; Cohort 2 (3 mg/kg), with AZA) was 1 (1) and the “Fever, Grade 3-5 adverse events: (patients)” value ([4]; Cohort 2 (3 mg/kg), with AZA) was 1 (1). For the same molecule, the “Fever, Grade 3-5 adverse events: Events” value ([4]; Cohort 2 (3 mg/kg), with AZA) was 1 (1), the “Hypertension, Grade 3-5 adverse events: (patients)” value ([4]; Cohort 2 (3 mg/kg), with AZA) was 1 and the “Hypertension, Grade 3-5 adverse events: Events” value ([4]; Cohort 2 (3 mg/kg), with AZA) was 2. For the same molecule, the “Hypokalaemia, Grade 3-5 adverse events: (patients)” value ([4]; Cohort 2 (3 mg/kg), with AZA) was 1 (1), the “Hypokalaemia, Grade 3-5 adverse events: Events” value ([4]; Cohort 2 (3 mg/kg), with AZA) was 1 (1) and the “Leukopenia, Grade 3-5 adverse events: (patients)” value ([4]; Cohort 2 (3 mg/kg), with AZA) was 1 (1). The “Leukopenia, Grade 3-5 adverse events: Events” value ([4]; Cohort 2 (3 mg/kg), with AZA) was 1 (1), the “Neutropenia, Grade 3-5 adverse events: (patients)” value ([4]; Cohort 2 (3 mg/kg), with AZA) was 1 and the “Neutropenia, Grade 3-5 adverse events: Events” value ([4]; Cohort 2 (3 mg/kg), with AZA) was 4. For the same molecule, the “Proctitis, Grade 3-5 adverse events: (patients)” value ([4]; Cohort 2 (3 mg/kg), with AZA) was 1, the “Proctitis, Grade 3-5 adverse events: Events” value ([4]; Cohort 2 (3 mg/kg), with AZA) was 2 and the “Thrombocytopenia … (patients)” value ([4]; Cohort 2 (3 mg/kg), with AZA) was 3 (3). For the same molecule, the “Thrombocytopenia, Grade 3-5 adverse events: Events” value ([4]; Cohort 2 (3 mg/kg), with AZA) was 3 (3), the “Disease Progression, Grade 3-5 adverse events: (patients)” value ([4]; Cohort 3 (10 mg/kg), with AZA) was 1 (1) and the “Disease Progression, Grade 3-5 adverse events: Events” value ([4]; Cohort 3 (10 mg/kg), with AZA) was 1 (1). The “Febrile Neutropenia … (patients)” value ([4]; Cohort 3 (10 mg/kg), with AZA) was 1 (1), the “Febrile Neutropenia, Grade 3-5 adverse events: Events” value ([4]; Cohort 3 (10 mg/kg), with AZA) was 1 (1) and the “Thrombocytopenia … (patients)” value ([4]; Cohort 3 (10 mg/kg), with AZA) was 1. For the same molecule, the “Thrombocytopenia, Grade 3-5 adverse events: Events” value ([4]; Cohort 3 (10 mg/kg), with AZA) was 2, the “Anaemia … (patients)” value ([4]; Cohort 4 (20 mg/kg), with AZA) was 1 and the “Anaemia, Grade 3-5 adverse events: Events” value ([4]; Cohort 4 (20 mg/kg), with AZA) was 2. For the same molecule, the “Febrile Neutropenia … (patients)” value ([4]; Cohort 4 (20 mg/kg), with AZA) was 1 (1), the “Febrile Neutropenia, Grade 3-5 adverse events: Events” value ([4]; Cohort 4 (20 mg/kg), with AZA) was 1 (1) and the “Thrombocytopenia … (patients)” value ([4]; Cohort 4 (20 mg/kg), with AZA) was 2 (2). The “Thrombocytopenia, Grade 3-5 adverse events: Events” value ([4]; Cohort 4 (20 mg/kg), with AZA) was 2 (2), the “Anaemia, Grade 3-5 adverse events: Total” value ([4]; all cohorts) was 16 and the “Constipation, Grade 3-5 adverse events: Total” value ([4]; all cohorts) was 1. For the same molecule, the “Disease Progression, Grade 3-5 adverse events: Total” value ([4]; all cohorts) was 1, the “Febrile Neutropenia, Grade 3-5 adverse events: Total” value ([4]; all cohorts) was 4 and the “Fever, Grade 3-5 adverse events: Total” value ([4]; all cohorts) was 1. The “Hypertension, Grade 3-5 adverse events: Total” value ([4]; all cohorts) was 2, the “Hypokalaemia, Grade 3-5 adverse events: Total” value ([4]; all cohorts) was 1 and the “Leukopenia, Grade 3-5 adverse events: Total” value ([4]; all cohorts) was 1. The “Neutropenia, Grade 3-5 adverse events: Total” value ([4]; all cohorts) was 6, the “Pleuropericarditis, Grade 3-5 adverse events: Total” value ([4]; all cohorts) was 1 and the “Proctitis, Grade 3-5 adverse events: Total” value ([4]; all cohorts) was 2. The “Thrombocytopenia, Grade 3-5 adverse events: Total” value ([4]; all cohorts) was 15 and the toxicity ([4]; monotherapy or in combination with aza) was “did not result in any observed increase in toxicity”.
